Test results reported in publication PMC7238434 (Nature protocols, 2019).
Where no end group is shown, it is not given here.

How the values were obtained:
[1] = biological target: p7 protein from the Hepatitis C virus (HCV) (Hepatitis C virus) (UniProt O39928); assay: cross-linking
[2] = biological target: transmembrane domain of Fas (Fas-TMD); assay: SDS-PAGE
cross-linking = biological target: the molecule itself; assay: cross-linking

“p7 protein from the Hepatitis C virus (HCV) (from UniProt O39928 748-810) (natural protein)” was tested, and the stoichiometry N [1] was 6.

B1: transmembrane domain of Fas (Fas-TMD) (domain or fragment)
chain: RSNLGWLCLLLLPIPLIVWVKRKEVQKT
modifications: not checked
Molecule B1 has a stoichiometry N [2] of 3.

B2: Fas-TMD with a C-terminal His6-tag (domain or fragment)
chain: RSNLGWLCLLLLPIPLIVWVKRKEVQKT-His6
modifications: also: primary amines blocked with Sulfo-NHS Acetate
For B2, the “stoichiometry N” value (cross-linking) was 3.
